Here are results for 21 molecules from US20220372138A1 (IOMX THERAPEUTICS, published 2022).

Assay [1] concerns the target T1, extracellular domain (ECD) of human IGSF11 (VSIG3), recombinant (human, UniProt Q5DX21 23-241).
T1 construct: biotinylated where captured on streptavidin; tags of the reagent not always stated; also called IGSF11 (ECD domain); ECD-IGSF11
T1 sequence: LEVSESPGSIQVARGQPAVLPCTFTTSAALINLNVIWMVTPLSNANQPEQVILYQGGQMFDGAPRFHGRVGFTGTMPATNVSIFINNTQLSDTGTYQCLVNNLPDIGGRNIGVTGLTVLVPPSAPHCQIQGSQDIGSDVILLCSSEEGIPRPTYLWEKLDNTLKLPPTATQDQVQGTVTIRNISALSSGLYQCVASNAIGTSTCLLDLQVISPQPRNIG
The assay is described as follows: ELISA RFU 0.1-0.5.

The target of assay [2] is T2, ECD of murine IGSF11, recombinant biotinylated (mouse, UniProt P0C673 23-240).
T2 construct: whole entry named; also called Mouse IGSF11
T2 sequence: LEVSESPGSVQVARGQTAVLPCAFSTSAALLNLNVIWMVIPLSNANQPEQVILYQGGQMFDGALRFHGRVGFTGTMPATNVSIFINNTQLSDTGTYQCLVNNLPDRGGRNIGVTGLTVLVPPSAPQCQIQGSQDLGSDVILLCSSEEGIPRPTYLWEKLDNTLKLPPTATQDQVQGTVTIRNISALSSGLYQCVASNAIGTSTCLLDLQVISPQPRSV
The assay is described as follows: ELISA RFU 0.1-0.5. (In general: ELISA stands for enzyme-linked immunosorbent assay.)

Assay [3] has as its target T2, ECD of murine IGSF11, recombinant …. The assay is described as follows: Fab ELISA.
For assay [4], the target named is T3, full-length ECD of human IGSF11 fused to murine Fc (human, UniProt Q5DX21 23-241).
T3 construct: also called Fc-fusion IGSF11 ECD; not shown: murine Fc
T3 sequence: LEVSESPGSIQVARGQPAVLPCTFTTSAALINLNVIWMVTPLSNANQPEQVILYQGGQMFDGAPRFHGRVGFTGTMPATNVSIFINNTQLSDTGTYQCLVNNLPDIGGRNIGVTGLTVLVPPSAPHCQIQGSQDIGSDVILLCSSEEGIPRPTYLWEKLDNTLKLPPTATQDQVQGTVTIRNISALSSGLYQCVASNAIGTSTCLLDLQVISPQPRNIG
The assay is described as follows: IgG ELISA.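 Further: ELISA binding of IgG antibodies to plate-coated IGSF11 Fc-fusion proteins (full-length ECD, IgV or IgC2 domain), detected via HRP-labelled anti-human IgG with TMB development.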

In assay [5] the target is T4, IgC2 domain of human IGSF11 fused to murine IgG2a Fc (human, UniProt Q5DX21 137-241).
T4 construct: not shown: murine IgG2a Fc-region
T4 sequence: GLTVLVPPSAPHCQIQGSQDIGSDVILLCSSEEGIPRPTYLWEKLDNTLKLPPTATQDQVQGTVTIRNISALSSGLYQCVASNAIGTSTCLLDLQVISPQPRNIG
The assay is described as follows: IgG ELISA.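 Further: ELISA binding of IgG antibodies to plate-coated IGSF11 Fc-fusion proteins (full-length ECD, IgV or IgC2 domain), detected via HRP-labelled anti-human IgG with TMB development.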

Assay [6] has as its target Streptavidin (UniProt P22629 37-163, limits assumed). The assay is described as follows: Fab ELISA.

Streptavidin, sequence (P22629 37-163 limits assumed): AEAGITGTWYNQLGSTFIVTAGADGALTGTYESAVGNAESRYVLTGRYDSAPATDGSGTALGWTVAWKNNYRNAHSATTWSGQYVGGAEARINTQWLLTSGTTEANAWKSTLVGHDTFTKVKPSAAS

B1: A-027 (scFv format) (scFv, V domains shown)
VH: QVQLVQSGAEVKKPGSSVKVSCKASGGTFSSYAISWVRQAPGQGLEWMGGIIPIFGTANYAQKFQGRVTITADKSTSTAYMELSSLRSEDTAVYYCARARGSTWGYFDYWGQGTLVTVSS
VL: EIVLTQSPASLSLSPGERVTLSCRASQSVSNYLAWYQQKPGQAPRLLIYDASNRATGIPARFSGSGSGTDFTLTISSLEPEDFAVYYCQQRDNWPLTFGGGTKVEIK
notes: scFv
Consider B1, for which the “ELISA binding signal (RFU)” value in assay [1] and in assay [2] was 0.1 to 0.5 rfu throughout.

B2: C-020 (Fab format) (Fab, V domains shown)
VH: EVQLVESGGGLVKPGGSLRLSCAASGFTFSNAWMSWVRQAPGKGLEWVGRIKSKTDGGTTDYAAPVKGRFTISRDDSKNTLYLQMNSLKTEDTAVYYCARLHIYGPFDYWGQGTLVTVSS
VL: SYELTQPPSVSVSPGQTASITCSGDKLGDKYASWYQQKPGQSPVLVIYQDSKRPSGIPERFSGSNSGNTATLTISGTQAEDEADYYCLSYLARSGSVVFGGGTKLTVL
notes: Fab from E. coli lysate
Turning to B2, in assay [3], the A450 is under 1.

B3: C-015 (IgG1 format) (antibody, V domains shown)
VH: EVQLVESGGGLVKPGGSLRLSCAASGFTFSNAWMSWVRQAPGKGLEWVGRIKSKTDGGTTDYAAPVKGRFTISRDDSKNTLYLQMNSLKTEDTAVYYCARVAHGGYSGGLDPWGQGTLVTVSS
VL: SYELTQPPSVSVSPGQTASITCSGDKLGDKYASWYQQKPGQSPVLVIYQDSKRPSGIPERFSGSNSGNTATLTISGTQAEDEADYYCSSTGTAHTLAVFGGGTKLTVL
Regarding B3, the EC50 (as a rule, the concentration at which the effect is half-maximal) in assay [4] fell in the range of 20 to 100 nM; in assay [5], 1 to 20 nM.

B4: C-010 (IgG1 format) (antibody, V domains shown)
VH: QVQLVQSGAEVKKPGSSVKVSCKASGGTFSSYAISWVRQAPGQGLEWMGGIIPIFGTANYAQKFQGRVTITADESTSTAYMELSSLRSEDTAVYYCARGYGEYYPAFDVWGQGTLVTVSS
VL: SYELTQPPSVSVSPGQTASITCSGDKLGDKYASWYQQKPGQSPVLVIYQDSKRPSGIPERFSGSNSGNTATLTISGTQAEDEADYYCASYAHTHSTWVFGGGTKLTVL
Take B4: the EC50 in assay [4] fell in the range of 20 to 100 nM; in assay [5] it was 1 to 20 nM.

B5: C-024 (Fab format) (Fab, V domains shown)
VH: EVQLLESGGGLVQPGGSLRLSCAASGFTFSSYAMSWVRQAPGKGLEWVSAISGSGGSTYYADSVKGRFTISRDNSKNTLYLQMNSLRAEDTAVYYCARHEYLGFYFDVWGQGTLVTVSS
VL: SYELTQPPSVSVSPGQTASITCSGDKLGDKYASWYQQKPGQSPVLVIYQDSKRPSGIPERFSGSNSGNTATLTISGTQAEDEADYYCLASHRLTLNYVFGGGTKLTVL
notes: Fab from E. coli lysate
With B5, the A450 in assay [3] is under 1.

B6: C-018 (IgG1 format) (antibody, V domains shown)
VH: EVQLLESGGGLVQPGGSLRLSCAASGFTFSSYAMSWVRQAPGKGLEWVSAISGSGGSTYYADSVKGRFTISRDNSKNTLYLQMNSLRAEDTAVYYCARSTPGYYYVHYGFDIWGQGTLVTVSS
VL: SYELTQPPSVSVSPGQTASITCSGDKLGDKYASWYQQKPGQSPVLVIYQDSKRPSGIPERFSGSNSGNTATLTISGTQAEDEADYYCQAWSTSTHSWVFGGGTKLTVL
Take B6: the results for the concentration for a half-maximal effect (EC50) in assay [4] and in assay [5] were 1 to 20 nM and under 1 nM, respectively.

B7: A-033 (scFv format) (scFv, V domains shown)
VH: QVQLVQSGAEVKKPGASVKVSCKASGYTFTSYGISWVRQAPGQGLEWMGWISAYNGNTNYAQKLQGRVTMTTDTSTSTAYMELRSLRSDDTAVYYCARDHSIVGATTFDYWGQGTLVTVSS
VL: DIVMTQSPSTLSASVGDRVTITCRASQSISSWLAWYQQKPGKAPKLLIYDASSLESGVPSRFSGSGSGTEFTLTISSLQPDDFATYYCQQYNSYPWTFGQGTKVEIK
notes: scFv
With B7, the “ELISA binding signal (RFU)” value in assay [1] and in assay [2] was 0.1 to 0.5 rfu each time.

B8: A-032 (scFv format) (scFv, V domains shown)
VH: QVQLVQSGAEVKKPGASVKVSCKASGYTFTGYYMHWVRQAPGQGLEWMGWMNPNSGNTGYAQKFQGRVTMTRNTSISTAYMELSSLRSEDTAVYYCARGGQQQLVLDDYWGQGTLVTVSS
VL: not shown
B8: the “ELISA binding signal (RFU)” value in assay [1] and in assay [2] was 0.1 to 0.5 rfu throughout.

B9: A-030 (scFv format) (scFv, V domains shown)
VH: QVQLVQSGAEVKKPGASVKVSCKASGYTFTGYYMHWVRQAPGQGLEWMGWINPNSGNTGYAQKFQGRVTMTRNTSISTAYMELSSLRSEDTAVYYCARGGQQQLVLDDYWGQGTLVTVSS
VL: DIQLTQSPSTLSASVGDRVTITCRASQSIGGWLAWYQHKPGKAPKLLIYAASSLQSGVPSRFSGSGSGTDFTLTISSLQPEDFATYYCRQSYSTPPTFGQGTKVEIK
notes: scFv
Consider B9, for which the “ELISA binding signal (RFU)” value in assay [1] and in assay [2] was 0.1 to 0.5 rfu each time.

B10: A-037 (scFv format) (scFv, V domains shown)
VH: QVQLVQSGAEVKKPGASVKVSCKASGYTFTGYYMHWVRQAPGQGLEWMGWINPNSGNTGYAQKFQGRVTMTRNTSISTAYMELSSLRSEDTAVYYCARGGQQQLVLDDYWGQGTLVTVSS
VL: NFMLTQPHSVSESPGKTVTISCTGSSGSIASNYVQWYQQRPGSAPTTVIYEDNQRPSGVPDRFSGSIDSSSNSASLTISGLKTEDEADYYCQSYDSSNQRVFGGGTKLTVL
notes: scFv
In the case of B10, the “ELISA binding signal (RFU)” value in assay [1] and in assay [2] was 0.1 to 0.5 rfu each time.

B11: A-036 (scFv format) (scFv, V domains shown)
VH: QVQLVQSGAEVKKPGASVKVSCKASGYTFTGYYMHWVRQAPGQGLEWMGWINPNSGGTNYAQKFQGRVTMTRNTSISTAYMELSSLRSEDTAVYYCARGGQQQLVLDDYWGQGTLVTVSS
VL: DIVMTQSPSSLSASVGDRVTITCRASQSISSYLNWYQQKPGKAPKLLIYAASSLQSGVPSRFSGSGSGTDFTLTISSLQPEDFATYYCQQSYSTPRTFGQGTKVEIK
notes: scFv
In the case of B11, the “ELISA binding signal (RFU)” value in assay [1] and in assay [2] was 0.1 to 0.5 rfu throughout.

B12: C-022 (IgG1 format) (antibody, V domains shown)
VH: EVQLLESGGGLVQPGGSLRLSCAASGFTFSSYAMSWVRQAPGKGLEWVSAISGSGGSTYYADSVKGRFTISRDNSKNTLYLQMNSLRAEDTAAYYCARMAAGASWGTFDYWSQGTLVTVSS
VL: DIQMTQSPSSLSASVGDRVTITCRASQSISSYLNWYQQKPGKAPKLLIYAASSLQSGVPSRFSGSGSGTDFTLTISSLQPEDFATYYCQQRSGSPLTFGQGTKVEIK
B12: the 50% effective concentration (EC50) in assay [4] and in assay [5] was 1 to 20 nM in each case.

B13: A-031 (scFv format) (scFv, V domains shown)
VH: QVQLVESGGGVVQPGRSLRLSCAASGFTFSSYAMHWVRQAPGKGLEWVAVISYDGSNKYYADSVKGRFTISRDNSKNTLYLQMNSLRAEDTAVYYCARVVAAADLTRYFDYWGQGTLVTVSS
VL: EIVLTQSPGTVSLSPGERATLSCRASQSVPKNYLAWFQQKPGQAPRLVIHTASSRAPGIPDRFTGSGSGTDFTLTISRLEPEDFAVYYCQQYGTSPNTFGQGTKLDIK
notes: scFv
As for B13, the “ELISA binding signal (RFU)” value in assay [1] and in assay [2] was 0.1 to 0.5 rfu in each case.

B14: A-025 (scFv format) (scFv, V domains shown)
VH: QVQLVQSGAEVKKPGSSVKVSCKASGGTFSSYAISWVRQAPGQGLEWMGGIIPIFGTANYAQKFQGRVTITADESTSTAYMELTSLRSEDTAVYYCARGGWLRQNWFDPWGQGTLVTVSS
VL: SSELTQDPAVSVALGQTVRITCQGDSLRSYYASWYQQKPGQAPVLVIYGKNNRPSGIPDRFSGSSSGNTASLTITGAQAEDEADYYCNSRDSSGNHPRVFGGGTKLTVL
notes: scFv
In the case of B14, the “ELISA binding signal (RFU)” value in assay [1] and in assay [2] was 0.1 to 0.5 rfu each time.

B15: A-028 (scFv format) (scFv, V domains shown)
VH: QVQLVQSGAEVKKPGSSVKVSCKASGGTFSSYAISWVRQAPGQGLEWMGGIIPIFGTANYAQKFQGRVTITADESTSTAYMELSSLRSEDTAVYYCARVGVEYQLLWYFDYWGQGTLVTVSS
VL: DIQMTQSPSSLSASVGDRVTLTCRTSQTISNYLNWYQQKPGKAPKLLVYAASNLQSWVPSRFSGSGSGTDFTLTISSLQPEDFATYYCQQSYNASFGGGTKVEFK
notes: scFv
Regarding B15, the “ELISA binding signal (RFU)” value in assay [1] and in assay [2] was 0.1 to 0.5 rfu each time.

B16: C-017 (Fab format) (Fab, V domains shown)
VH: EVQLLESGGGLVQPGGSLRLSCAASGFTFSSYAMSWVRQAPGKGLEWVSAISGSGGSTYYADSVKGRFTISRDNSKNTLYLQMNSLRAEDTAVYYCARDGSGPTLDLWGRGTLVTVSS
VL: DIQMTQSPSSLSASVGDRVTITCRASQSISSYLNWYQQKPGKAPKLLIYAASSLQSGVPSRFSGSGSGTDFTLTISSLQPEDFATYYCQQHRYIPPWTFGQGTKVEIK
notes: Fab from E. coli lysate
As to B16, in assay [3], the A450 was under 1.

B17: C-011 (IgG1 format) (antibody, V domains shown)
VH: QVQLVQSGAEVKKPGSSVKVSCKASGGTFSSYAISWVRQAPGQGLEWMGGIIPIFGTANYAQKFQGRVTITADESTSTAYMELSSLRSEDTAVYYCARHSTPSFLQYWGQGTLVTVSS
VL: SYELTQPPSVSVSPGQTASITCSGDKLGDKYASWYQQKPGQSPVLVIYQDSKRPSGIPERFSGSNSGNTATLTISGTQAEDEADYYCAVYPAHASARWVFGGGTKLTVL
Consider B17, for which the EC50 in assay [4] and in assay [5] was under 1 nM each time.

B18: A-003 (scFv format) (scFv, V domains shown)
VH: VQLVQSGAEVKKPGSSVKVSCKASGGTFSSYAISWVRQAPGQGLEWMGGIIPIFGTANYAQKFQGRVTITADESTSTAYMELSSLRSEDTAVYYCASPRIQLWAAGGFDYWGQGTLVTVSS
VL: QSALTQPASVSGSPGQSITISCTGTSSDVGGYNLVSWYQQHPGKAPKLMIYDVSNRPSGVSNRFSGSKSGNTASLTISGLQAEDEADYYCSSFTTSTTLVFGGGTKLTVL
notes: scFv
With B18, the “ELISA binding signal (RFU)” value in assay [1] and in assay [2] was 0.1 to 0.5 rfu in each case.

B19: A-029 (scFv format) (scFv, V domains shown)
VH: QVQLVQSGAEVKKPGSSVKVSCKASGGTFSSYAISWVRQAPGQGLEWMGGIIPIFGTANYAQKFQGRVTITADESTGTAYMELSSLRSEDTAVYYCARSYYYYYGMDVWGQGTTVTVSS
VL: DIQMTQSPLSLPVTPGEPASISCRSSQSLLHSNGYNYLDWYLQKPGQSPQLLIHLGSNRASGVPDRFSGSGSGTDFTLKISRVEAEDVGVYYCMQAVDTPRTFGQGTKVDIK
notes: scFv
On to B19, for which the “ELISA binding signal (RFU)” value in assay [1] and in assay [2] was 0.1 to 0.5 rfu throughout.

B20: C-016 (Fab format) (Fab, V domains shown)
VH: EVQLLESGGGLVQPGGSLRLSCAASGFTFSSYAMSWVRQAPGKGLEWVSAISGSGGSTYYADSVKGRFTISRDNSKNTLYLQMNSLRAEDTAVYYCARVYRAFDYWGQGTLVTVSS
VL: ASVLTQPPSVSAAPGQKVTISCSGSSSNIGNNYVSWYQQLPGTAPKLLIYDNNKRPSGIPDRFSGSKSGTSATLGITGLQAEDEADYYCHLYTEAESHWVFGGGTKLTVL
notes: Fab from E. coli lysate
Consider B20, for which the A450 is under 1 in assay [3] and under 0.1 in assay [6].

B21: C-002 (Fab format) (Fab, V domains shown)
VH: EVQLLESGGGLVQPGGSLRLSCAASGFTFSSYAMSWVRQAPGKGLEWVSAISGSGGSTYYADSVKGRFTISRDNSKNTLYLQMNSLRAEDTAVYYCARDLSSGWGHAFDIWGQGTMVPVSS
VL: ASVLTQPPSVSAAPGQKVTISCSGSSSNIGNNYVSWYQQLPGTAPKLLIYDNNKRPSGIPDRFSGSKSGTSATLGITGLQAEDEADYYCLSYTTSEHHLVFGGGTKLTVL
notes: Fab from E. coli lysate
In the case of B21, the A450 is under 1 in assay [3] and under 0.1 in assay [6].
